Reference: patent US20230332166A1, “FORMATE-INDUCIBLE PROMOTERS AND METHODS OF USE THEREOF” (Imperial College Innovations Ltd, priority 2020, published 2023)

Tested on: Y. lipolytica JMY2900
Test: qPCR of putative FDH gene transcription upon induction with sodium formate
Format: cell-based, Yarrowia lipolytica
Settings: YNB with 0.5% sodium formate, 6 h, 28° C., vs absence of formate; qPCR normalised to actin
Description: FIG. 3: Transcription levels of the FDH genes of Yarrowia lipolytica W29 measured by qPCR, normalised to actin (ACT1) expression. Yarrowia lipolytica was grown in YNB supplemented with 1% glucose and 0.5% yeast extract at 15 h at 28° C., before being washed and transferred into YNB with 0.5% of sodium formate for induction and grown for 6 h.
The inducibility of the putative FDH genes with formate was then tested by qPCR. YALI0E14256g1_1 and the nine putative FDH with the highest % identity to YALI0E14256g1_1 were selected for testing. Y. lipolytica JMY2900 was cultured in YNB media supplemented with 1% glucose and 0.5% yeast extract for 15 h at 28° C. Cells were washed with distilled water and cultured in fresh liquid YNB media supplemented with 0.5% sodium formate at 28° C. with agitation at 160 rpm, before being harvested at 6 h post-inoculated. Cells were frozen in liquid nitrogen and stored at −80° C. RNA was subsequently extracted using the RNeasy Mini Kit (Qiagen), and 2 μg was treated with DNAse (Ambion; Life Science Technologies, Saint-Aubain, France). cDNA was synthesised using the Maxima First Strand cDNA synthesis kit (Thermo Fischer Scientific, Villebon sur Yvette, France). qPCR was then performed using the SYBRgreen mastermix (Thermo Fischer Scientific) with gene-specific primers designed using Primer3 software. Relative expression levels were calculated using ΔCT and ΔΔCT methods. Expression levels were normalised to actin.

Row | Molecule | Fold increase on induction (fold change expression of putative FDH genes upon induction with sodium formate)
1 | Yali0A21353: putative Y. lipolytica FDH gene; promoter region SEQ ID NO: 2 (1 Kb) and 18 (1.5 Kb) (nucleic acid, listed as Yarrowia lipolytica, YALI0A12353g) DNA: ATGAAGGTCCTTCTTATTCTCTACGATGCCGGCTCCCACGCCAAGGACGAGCCCAAGCTGCTTGGATGCACCGAGAACGAGCTTGGTATTCGAGACTGGCTCGAGTCGCAGGGCCACACTCTCGTCACCACCTCTTCCAAGGACGGTGCCGACTCTGTGCTTGACAAGGAGATTGTTGACGCTGATGTAGTCATCACCACCCCGTTCCACCCCGGCTACATCAACAAGGAGCGAATTGACAAGGCCAAGAAGCTCAAGATCTGCATCACCGCCGGTGTCGGCTCCGACCACGTGGACCTCGATGCTGCCAACGCCCGAAACATTGCCGTTCTCGAGGTCACCGGCTCGAACGTCCAGTCCGTCGCTGAGCATGTTGTCATGACCATGCTGGTGCTGGTCCGAAACTTTGTCCCTGCCCACGAGCAGATTATTTCTGGCGGCTGGGACGTTGCTGCGGTTGCCAAGGACTCTTACGATCTCGAGGGCAAGGTCATCGGTACCGTTGGAGGCGGTCGAATCGGCCAGCGAGTGCTCAAGCGATGCAAGCCCTTTGACCCCATGGAGATGCTCTACTACGACTACCAGGCTATGCCAGCTGATGTGGAGAATGAGATTGGATGCCGACGAGTCGAGTCTCTGGAGGAGATGCTCTCTCTCTGTGACGTTGTAACCATCAACTGTCCTCTCCATGCCTCCACCAAGGGTCTCTTCAACAAGGAGCTCATTTCCCACATGAAGGACGGCGCTTGGCTCGTCAACACTGCTCGAGGAGCCATCTGCGTCACCGAGGACATTGTCGACGCTCTCGAGTCCGGCAAGATCCGAGGCTACGGTGGTGACGTCTGGTTCCCCCAGCCTGCCCCCAAGGACCACCCCTGGAGAACCATGCGAAACAAGTACGGCGGTGGAAACGCCATGACTCCCCATATCTCCGGTACTTCCATCGACGCCCAGGGCCGATACGCTGAGGGTACCAAGAAGATTCTTGAGGTCTTTTTCTCTGGCAAGCAGGATTACCGCCCCCAGGACATTATCTGCATCAACGGTCACTACGGTACCAAGGCTTACGGTGACGACAAGGAGCACAAGGCCCACGTTTCCAAGTAGCTGTTTAACTTATATAAGCAATTGACTGGATTTGATAACGA | 7.9 fold
2 | Yali0C08074: putative Y. lipolytica FDH gene; promoter region SEQ ID NO: 5 (1 Kb) and 21 (1.5 Kb) (nucleic acid, listed as Yarrowia lipolytica, YALI0C08074g) DNA: ATGAAGGTCCTTCTTGTTCTTTACGATGCTGGCTCCCATGCCAAGGATGAGCCCAAGCTGCTTGGATGCACCGAGAACGAGCTCGGTATCAGAGACTGGCTCGAGTCTCAGGGACATACCCTTGTAACTACGTCTTCCAAGGACGGTGCCGACTCTGTCCTCGACAAGGAGATTGTCGATGCCGATGTAGTCATCACCACCCCCTTTCATCCTGGATACATCAACAAGGAGCGAATCGACAAAGCCAAGAAGCTCAAGATTTGCATCACTGCTGGTGTCGGCTCTGACCACGTCGATCTCGACGCTGCCAACGCCCGAGATATTGCTGTTCTCGAAGTCACCGGCTCCAATGTCCAGTCTGTTGCCGAGCACGTTATCATGACCATGTTGGTCCTGGTGCGAAACTTTGTCCCTGCTCACGAGCAGATCATCTCTGGCGGTTGGGACGTTGCTGCTGTTGCCAAGGACTCATACGATCTCGAGGGTAAGGTCATCGGCACCGTTGGAGGAGGCCGAATTGGCCAGCGAGTGCTCAAGCGATGCAAGCCCTTCGACCCCATGGAGATGCTCTACTACGACTATCAGGCCATGCCAGCTGACGTTGAGAAGGAGATTGGATGTCGTCGAGTCGAGTCTCTCGAGGAGATGCTCTCTCTTTGTGACGTGGTCACCATCAACTGCCCTCTGCACGCTTCCACCAAGGGCCTGTTCAACAAAGAGCTCATCTCGCACATGAAGGATGGTGCCTGGCTCGTTAACACCGCTCGAGGAGCCATTTGTGTCACCGAGGACATTGTCGAGGCTCTCGAGTCCGGTAAGATCCGAGGTTACGGCGGAGACGTTTGGTTCCCCCAGCCTGCCCCTAAGGACCACCCCTGGAGAACCATGCGAAACAAGTACGGGGGAGGAAACGCCATGACTCCTCATATCTCCGGAACTTCCATCGACGCCCAGGGCCGATATGCCGAGGGCACCAAGAAGATCCTTGAGGTTTTCTTTTCTGGAAAGCAGGATTATCGACCCCAGGACATTATCTGCATCAATGGTCACTACGGCACAAAAGCTTACGGAGATGACAAGGAGCACAAGGAGCACCAGCTCAAGTAAATATATATAGCTAGAAACATATCTCGTTGTTGCTT | 3.7 fold
